From patent US20240209068A1 come the findings set out here.

Test [1] addresses Clostridium difficile toxin A (purified) (Clostridium difficile) (UniProt P16154). The experiment in a line: cell-based or functional assay.
For test [2] the target is unchanged.

Sequence of Actoxumab IgA2m1 (heavy, form in doubt): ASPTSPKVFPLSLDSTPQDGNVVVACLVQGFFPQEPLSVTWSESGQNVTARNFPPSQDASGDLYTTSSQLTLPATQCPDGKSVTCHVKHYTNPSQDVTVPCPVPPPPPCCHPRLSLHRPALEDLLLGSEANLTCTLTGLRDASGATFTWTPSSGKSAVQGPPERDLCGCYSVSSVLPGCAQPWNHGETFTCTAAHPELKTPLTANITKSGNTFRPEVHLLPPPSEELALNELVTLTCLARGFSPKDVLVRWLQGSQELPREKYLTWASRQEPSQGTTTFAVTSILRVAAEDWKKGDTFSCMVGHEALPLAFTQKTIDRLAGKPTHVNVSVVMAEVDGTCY
Sequence of Actoxumab IgA2m1 (P01591 whole entry, form in doubt): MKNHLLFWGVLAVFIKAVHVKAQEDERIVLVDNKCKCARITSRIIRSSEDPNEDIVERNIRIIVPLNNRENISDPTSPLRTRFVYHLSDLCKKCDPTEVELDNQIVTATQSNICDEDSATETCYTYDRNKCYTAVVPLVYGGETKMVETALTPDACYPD

As to Actoxumab IgA2m1 (antibody), in test [1], the potency (IC50) of Toxin A neutralization on Vero cells relative to Actoxumab IgG; antibody from mRNA-transfected cell supernatant turned out to be 200 fold and the potency (IC50) of Toxin A neutralization on Vero cells relative to Actoxumab IgG; recombinant antibody protein was 200 fold. In addition, in test [2], the IC50 (read off the curve); % neutralization of Toxin A on Vero cells (alamarBlue), curve 'Actoxumab IgA2m1 Protein' was 0.03 µg/mL and the IC50 (read off the curve); % neutralization of Toxin A on Vero cells (alamarBlue), curve 'Actoxumab IgA2m1 mRNA' is 0.01 µg/mL.
